# Reference: the supplement of paper PMC11246515
# ± gives the standard deviation of the averaged measurements.
# Experiment: total protein half-life in vivo (active degradation + dilution); higher = more stable protein
# [1] = E. coli NCM3722 delta-lon, growth: N-lim chemostat, doubling time 6 h
# [2] = E. coli NCM3722 delta-smpB, growth: N-lim chemostat, doubling time 6 h
# [3] = wild type E. coli NCM3722, growth: C-lim chemostat, doubling time 3 h
# [4] = E. coli NCM3722 delta-clpP delta-lon delta-hslV, growth: N-lim chemostat, doubling time 6 h
# [5] = E. coli NCM3722 delta-clpP, growth: N-lim chemostat, doubling time 6 h
# [6] = E. coli NCM3722 delta-hslV, growth: N-lim chemostat, doubling time 6 h
# [7] = wild type E. coli NCM3722, growth: C-lim chemostat, doubling time 6 h
# [8] = wild type E. coli NCM3722, growth: C-lim chemostat, doubling time 12 h
# [9] = wild type E. coli NCM3722, growth: N-lim chemostat, doubling time 6 h
# [10] = wild type E. coli NCM3722, growth: N-lim chemostat, doubling time 12 h
# [11] = wild type E. coli NCM3722, growth: P-lim chemostat, doubling time 6 h
# [12] = wild type E. coli NCM3722, growth: P-lim chemostat, doubling time 12 h
Sequence,total protein half-life in vivo [1] [h],total protein half-life in vivo [2] [h],total protein half-life in vivo [3] [h],total protein half-life in vivo [4] [h],total protein half-life in vivo [5] [h],total protein half-life in vivo [6] [h],total protein half-life in vivo [7] [h],total protein half-life in vivo [8] [h],total protein half-life in vivo [9] [h],total protein half-life in vivo [10] [h],total protein half-life in vivo [11] [h],total protein half-life in vivo [12] [h]
MTEKVKQHAAPVTGSDEIDIGRLVGTVIEARWWVIGITTVFALCAVVYTFFATPIYSADALVQIEQNSGNSLVQDIGSALANKPPASDAEIQLIRSRLVLGKTVDDLDLDIAVSKNTFPIFGAGWDRLMGRQNETVKVTTFNRPKEMADQVFTLNVLDNKNYTLSSDGGFSARGQAGQMLKKEGVTLMVEAIHASPGSEFTVTKYSTLGMINQLQNSLTVTENGKDAGVLSLTYTGEDREQIRDILNSIARNYQEQNIERKSAEASKSLAFLAQQLPEVRSRLDVAENKLNAFRQDKDSVDLPLEAKAVLDSMVNIDAQLNELTFKEAEISKLYTKVHPAYRTLLEKRQALEDEKAKLNGRVTAMPKTQQEIVRLTRDVESGQQVYMQLLNKEQELKITEASTVGDVRIVDPAITQPGVLKPKKGLIILGAIILGLMLSIVGVLLRSLFNRGIESPQVLEEHGISVYASIPLSEWQKARDSVKTIKGIKRYKQSQLLAVGNPTDLAIEAIRSLRTSLHFAMMQAQNNVLMMTGVSPSIGKTFVCANLAAVISQTNKRVLLIDCDMRKGYTHELLGTNNVNGLSEILIGQGDITTAAKPTSIAKFDLIPRGQVPPNPSELLMSERFAELVNWASKNYDLVLIDTPPILAVTDAAIVGRHVGTTLMVARYAVNTLKEVETSLSRFEQNGIPVKGVILNSIFRRASAYQDYGYYEYEYKSDAK,4.27 ± 0.44,2.13 ± 0.52,2.75,,,,,,,,,
MTELKNDRYLRALLRQPVDVTPVWMMRQAGRYLPEYKATRAQAGDFMSLCKNAELACEVTLQPLRRYPLDAAILFSDILTVPDAMGLGLYFEAGEGPRFTSPVTCKADVDKLPIPDPEDELGYVMNAVRTIRRELKGEVPLIGFSGSPWTLATYMVEGGSSKAFTVIKKMMYADPQALHALLDKLAKSVTLYLNAQIKAGAQAVMIFDTWGGVLTGRDYQQFSLYYMHKIVDGLLRENDGRRVPVTLFTKGGGQWLEAMAETGCDALGLDWTTDIADARRRVGNKVALQGNMDPSMLYAPPARIEEEVATILAGFGHGEGHVFNLGHGIHQDVPPEHAGVFVEAVHRLSEQYHR,4.15 ± 0.56,3.93 ± 0.27,2.94 ± 0.43,4.03 ± 0.26,3.74 ± 0.17,3.83 ± 0.17,5.94 ± 0.61,8.76 ± 0.76,4.31 ± 0.093,6.62 ± 0.27,5.88 ± 0.075,10.4 ± 0.69
MTELPIDENTPRILIVEDEPKLGQLLIDYLRAASYAPTLISHGDQVLPYVRQTPPDLILLDLMLPGTDGLTLCREIRRFSDIPIVMVTAKIEEIDRLLGLEIGADDYICKPYSPREVVARVKTILRRCKPQRELQQQDAESPLIIDEGRFQASWRGKMLDLTPAEFRLLKTLSHEPGKVFSREQLLNHLYDDYRVVTDRTIDSHIKNLRRKLESLDAEQSFIRAVYGVGYRWEADACRIV,4.58 ± 0.1,4.01 ± 0.14,2.89 ± 0.092,4.22 ± 0.48,4.1 ± 0.35,4.1 ± 0.073,5.54 ± 0.16,11.7 ± 2.5,4.05 ± 0.21,6.62 ± 0.32,5.58 ± 0.26,13.5 ± 0.37
MTEQATTTDELAFTRPYGEQEKQILTAEAVEFLTELVTHFTPQRNKLLAARIQQQQDIDNGTLPDFISETASIRDADWKIRGIPADLEDRRVEITGPVERKMVINALNANVKVFMADFEDSLAPDWNKVIDGQINLRDAVNGTISYTNEAGKIYQLKPNPAVLICRVRGLHLPEKHVTWRGEAIPGSLFDFALYFFHNYQALLAKGSGPYFYLPKTQSWQEAAWWSEVFSYAEDRFNLPRGTIKATLLIETLPAVFQMDEILHALRDHIVGLNCGRWDYIFSYIKTLKNYPDRVLPDRQAVTMDKPFLNAYSRLLIKTCHKRGAFAMGGMAAFIPSKDEEHNNQVLNKVKADKSLEANNGHDGTWIAHPGLADTAMAVFNDILGSRKNQLEVMREQDAPITADQLLAPCDGERTEEGMRANIRVAVQYIEAWISGNGCVPIYGLMEDAATAEISRTSIWQWIHHQKTLSNGKPVTKALFRQMLGEEMKVIASELGEERFSQGRFDDAARLMEQITTSDELIDFLTLPGYRLLA,2.2 ± 0.35,1.76 ± 0.22,2.25 ± 0.18,5.7 ± 1.2,4.82 ± 0.056,1.75 ± 0.022,3.17 ± 0.25,4.18 ± 0.32,2.5 ± 1,2.59 ± 0.19,2.73 ± 0.2,5.08 ± 0.14
MTEVRRRGRPGQAEPVAQKGAQALERGIAILQYLEKSGGSSSVSDISLNLDLPLSTTFRLLKVLQAADFVYQDSQLGWWHIGLGVFNVGAAYIHNRDVLSVAGPFMRRLMLLSGETVNVAIRNGNEAVLIGQLECKSMVRMCAPLGSRLPLHASGAGKALLYPLAEEELMSIILQTGLQQFTPTTLVDMPTLLKDLEQARELGYTVDKEEHVVGLNCIASAIYDDVGSVVAAISISGPSSRLTEDRFVSQGELVRDTARDISTALGLKAHP [P0ACN4],4.42 ± 0.94,4.4 ± 0.4,2.79 ± 0.13,,5.13 ± 0.62,5.12 ± 0.34,5.64 ± 0.18,11 ± 0.97,4.91 ± 0.23,9.46 ± 0.2,5.44 ± 0.41,11.1 ± 0.81
MTFWSILRQRCWGLVLVVAGVCVITFIISHLIPGDPARLLAGDRASDAIVENIRQQLGLDQPLYVQFYRYVSDLFHGDLGTSIRTGRPVLEELRIFFPATLELAFGALLLALLIGIPLGILSAVWRNRWLDHLVRIMAITGISTPAFWLGLGVIVLFYGHLQILPGGGRLDDWLDPPTHVTGFYLLDALLEGNGEVFFNALQHLILPALTLAFVHLGIVARQIRSAMLEQLSEDYIRTARASGLPGWYIVLCYALPNALIPSITVLGLALGDLLYGAVLTETVFAWPGMGAWVVTSIQALDFPAVMGFAVVVSFAYVLVNLVVDLLYLWIDPRIGRGGGE,,,,> 8,,5.53,,,5.15,7.28,,
MTHLPHWWQNGVIYQIYPKSFQDTTGSGTGDLRGVIQHLDYLHKLGVDAIWLTPFYVSPQVDNGYDVANYTAIDPTYGTLDDFDELVTQAKSRGIRIILDMVFNHTSTQHAWFREALNKESPYRQFYIWRDGEPETPPNNWRSKFGGSAWRWHAESEQYYLHLFAPEQADLNWENPAVRAELKKVCEFWADRGVDGLRLDVVNLISKDPRFPEDLDGDGRRFYTDGPRAHEFLHEMNRDVFTPRGLMTVGEMSSTSLEHCQRYAALTGSELSMTFNFHHLKVDYPGGEKWTLAKPDFVALKTLFRHWQQGMHNVAWNALFWCNHDQPRIVSRFGDEGEYRVPAAKMLAMVLHGMQGTPYIYQGEEIGMTNPHFTRITDYRDVESLNMFAELRNDGRDADELLAILASKSRDNSRTPMQWSNGDNAGFTAGEPWIGLGDNYQQINVEAALADDSSVFYTYQKLIALRKQEAILTWGNYQDLLPNSPVLWCYRREWKGQTLLVIANLSREIQPWQAGQMRGNWQLVMHNYEEASPQPCAMNLRPFEAVWWLQK,,,2.39 ± 0.28,,,,1.98 ± 0.55,2.82 ± 0.88,,,,5.64
MTHQLRSRDIIALGFMTFALFVGAGNIIFPPMVGLQAGEHVWTAAFGFLITAVGLPVLTVVALAKVGGGVDSLSTPIGKVAGVLLATVCYLAVGPLFATPRTATVSFEVGIAPLTGDSALPLFIYSLVYFAIVILVSLYPGKLLDTVGNFLAPLKIIALVILSVAAIVWPAGSISTATEAYQNAAFSNGFVNGYLTMDTLGAMVFGIVIVNAARSRGVTEARLLTRYTVWAGLMAGVGLTLLYLALFRLGSDSASLVDQSANGAAILHAYVQHTFGGGGSFLLAALIFIACLVTAVGLTCACAEFFAQYVPLSYRTLVFILGGFSMVVSNLGLSQLIQISVPVLTAIYPPCIALVVLSFTRSWWHNSSRVIAPPMFISLLFGILDGIKASAFSDILPSWAQRLPLAEQGLAWLMPTVVMVVLAIIWDRAAGRQVTSSAH [P0AD99],,,,,,,,,,,0.949,1.98 ± 0.53
MTIALELQQLKKTYPGGVQALRGIDLQVEAGDFYALLGPNGAGKSTTIGIISSLVNKTSGRVSVFGYDLEKDVVNAKRQLGLVPQEFNFNPFETVQQIVVNQAGYYGVERKEAYIRSEKYLKQLDLWGKRNERARMLSGGMKRRLMIARALMHEPKLLILDEPTAGVDIELRRSMWGFLKDLNDKGTTIILTTHYLEEAEMLCRNIGIIQHGELVENTSMKALLAKLKSETFILDLAPKSPLPKLDGYQYRLVDTATLEVEVLREQGINSVFTQLSEQGIQVLSMRNKANRLEELFVSLVNEKQGDRA,6.83 ± 0.17,6.4 ± 0.21,3.09 ± 0.16,6.97 ± 0.91,6.29 ± 0.4,6.1 ± 1,6.21 ± 0.28,11.6 ± 1.9,6.14 ± 0.38,12.1 ± 0.42,6.24 ± 0.29,12.7 ± 0.8
MTIKVGINGFGRIGRIVFRAAQKRSDIEIVAINDLLDADYMAYMLKYDSTHGRFDGTVEVKDGHLIVNGKKIRVTAERDPANLKWDEVGVDVVAEATGLFLTDETARKHITAGAKKVVMTGPSKDNTPMFVKGANFDKYAGQDIVSNASCTTNCLAPLAKVINDNFGIIEGLMTTVHATTATQKTVDGPSHKDWRGGRGASQNIIPSSTGAAKAVGKVLPELNGKLTGMAFRVPTPNVSVVDLTVRLEKAATYEQIKAAVKAAAEGEMKGVLGYTEDDVVSTDFNGEVCTSVFDAKAGIALNDNFVKLVSWYDNETGYSNKVLDLIAHISK [P0A9B2],5.382 ± 0.019,5.22 ± 0.19,3.35 ± 0.1,6.03 ± 0.4,5.43 ± 0.34,5.447 ± 0.054,6.201 ± 0.014,12.1 ± 0.39,5.69 ± 0.16,9.73 ± 0.3,6.302 ± 0.044,12.6 ± 0.74
